# ± gives the standard deviation.
# Assay: protein stability index of a GFP-peptide fusion (GPS, HEK-293T) (PSI 1-6); higher = more stable
# Details: c terminus: a fixed tail appended
# 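Further: 24-mer peptide tiles fused after GFP, lentivirally expressed, FACS-sorted into six equal bins by GFP/DsRed ratio, decoded by Illumina sequencing, PSI is the read-weighted mean bin number.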
Sequence,protein stability index (treatment: DMSO),"protein stability index (treatment: MLN4924 1 uM, 8 h)"
TDRPLLSTLEESVVRICCIRSFGH [SMG5],2.36 ± 0.24,2.08 ± 0.12
LRDKTVMIIVAISPKYKQDVEGAE [TRAF3IP2],2.4 ± 0.047,2.97 ± 0.69
QEITEQQDIAQEISEAFSQRVGFG [CHMP4C],5.02 ± 0.14,4.77 ± 0.38
SSKSDADSGFLGLRPTSVDPALRR [NOP53],4.51 ± 0.2,4.51 ± 0.22
LADPYRSLKAPGARGPGPEGGGGG [JUNB],4.63 ± 0.53,4.71 ± 0.47
DNEGNSALHIIVQYNRPISDFLTL [FEM1B],3.06 ± 0.9,2.33 ± 0.17
LQRVLEHRRRNQLIKKKKEELEAK [FAM107A],3.49 ± 0.29,3.81 ± 0.5
TRDLAGLRQFFKQLPSPPFLPAAG [CEBPD],2.56 ± 0.28,2.44 ± 0.048
AGAGGSGSRISVSRSTSFRGGMGS [KRT18],3.88 ± 0.21,3.79 ± 0.28
YDDDIDDEDEEEEDADCYDDDDSG [UBE2R2],5.58 ± 0.11,5.61 ± 0.24
RGLRYYYDKNIIHKTAGKRYVYRF [ETS1],2.32 ± 0.2,2.46 ± 0.18
NQRAMDLYKALGAQDLTEAEGWHF [SAT2],3.28 ± 0.25,3.14 ± 0.28
NPFYHCLVAEILPAPGKLLGPCVV [SAT2],3.16 ± 0.97,3.07 ± 1.2
AQRVRAAMFPETLDEGMQIPSTQF [CTNNB1],3.62 ± 0.23,3.65 ± 0.16
EEFLSAMQSARGPTPSSPLPSVPV [PLEKHN1],4.15 ± 0.27,4.14 ± 0.19
IGNLVKILHGTRGELLLDVAWHPV [RBBP5],2.72 ± 0.41,2.65 ± 0.43
VLALEERFGVRPKVTGYLISYSSM [MFSD9],2.17 ± 0.53,1.95 ± 0.099
CKVDCEANLTPNVGGYFVDKFVAT [P3H4],2.84 ± 0.23,2.55 ± 0.29
TCKASHITSSVFPSASLGKASSRK [FBXO34],3.62 ± 0.28,3.55 ± 0.2
RLRKCYEVGMVKCGSRRERCGYRL [ESR2],2.54 ± 0.4,2.43 ± 0.29
VQELCKQLHAKIDAAEEEKYDMEV [TNNI2],4.81 ± 0.28,4.74 ± 0.1
KFAGSFYFAITVITTIGYGHAAPG [KCNK9],3.42 ± 0.31,3.27 ± 0.17
FLTAPLLEFLLALYFLFADAMQLN [CMTM3],2.94 ± 0.29,3.17 ± 0.3

Sequence,protein stability index (treatment: DMSO),"protein stability index (treatment: MLN4924 1 uM, 8 h)"
GDSGERSEGEAMEICSEPVAASPA [ZNF511],5.47 ± 0.24,5.52 ± 0.26
FRIFIIWAISSWFRRGPAPQDQAG [CLPTM1],2.23 ± 0.2,1.87 ± 0.28
KVKKLKNLKTLDSKPGVYTSYKPY [DENND6A],2.66 ± 0.28,2.81 ± 0.42
EQQNQEYKILLDVKTRLEQEIATY [KRT17],3.44 ± 0.34,3.59 ± 0.56
TPSARRNYRIAGARLMRSNYPPPL [C6orf223],2.92 ± 0.14,3.08 ± 0.22
ARLVFVPLLLLCNIKPRRYLTVVF [SLC29A1],2.92 ± 0.51,2.91 ± 0.87
SSFFQQFFHCYCPVGFGRRTDPNG [CRY1],2.42 ± 0.52,2.11 ± 0.27
CRYLNFTKGEEISVYVKLAGERED [MIA2],2.52 ± 0.26,2.77 ± 0.22
MGGHHPGADYPVDGLPDLGHAQDL [CTNNB1],5.03 ± 0.25,5.03 ± 0.3
IEGAPEVTMSSLFKHILRTEGAFG [SLC25A25],2.31 ± 0.39,2.63 ± 0.13
AVEISDHPGEHEVGEPEFHYIAGA [CPXM2],4.82 ± 0.57,5.17 ± 0.32
CILVEMHTGEPLFSGSNEVDQMNR [DYRK1B],2.58 ± 0.07,2.58 ± 0.22
YEDGTELTEDYFPSVPDNAELVLL [DFFB],3.52 ± 0.36,3.7 ± 0.23
HLEINPDHPIVETLRQKAEADKND [HSP90AB1],5.58 ± 0.2,5.56 ± 0.1
SRRIYRCRNCINLQNEAQKRESFL [IQUB],2.17 ± 0.42,2.24 ± 0.2
SKARRKKIMIIICCVILGIVIAST [STX1A],2.69 ± 0.23,2.67 ± 0.33
VETAFERLQQELEQQRCLLLARLR [TRIM15],2.81 ± 0.33,2.86 ± 0.3
FIAVTSYQNHKITQLKIENNPFAK [TBX5],2.12 ± 0.28,2.27 ± 0.53
PRLWTTCRDGEVLLRLSKHGPGHE [ACSBG2],2.4 ± 0.15,2.21 ± 0.17
VLLMAICIVSPDRPGVQDAALIEA [VDR],2.8 ± 0.33,2.77 ± 0.66
QALMLPPGSFWGLCQVAQEALASA [VENTX],2.04 ± 0.25,2.18 ± 0.42
QILGQTLKASMRELGLLIFFLFIG [KCNA1],2.67 ± 0.67,2.45 ± 0.51
SNLLKAGFIRHTVNKITFSEQCYY [DVL3],2.3 ± 0.39,2.39 ± 0.3

Sequence,protein stability index (treatment: DMSO),"protein stability index (treatment: MLN4924 1 uM, 8 h)"
SSNHGCQHECVNTDDSYSCHCLKG [MATN2],4.95 ± 0.08,5.1 ± 0.2
KAQLLEQAQGQLRELLDRAMREAI [SOAT2],2.29 ± 0.33,2.37 ± 0.42
FRVVDCDQFTQVFLESQGIELNPP [EFHC1],2.01 ± 0.14,2.27 ± 0.17
LEEEFDSDSGLSLDSSHSPSSLSS [NFE2L1],5.251 ± 0.052,5.22 ± 0.12
LVNDDDEEADDTRYTQGTGGDEVD [ZC3H15],5.43 ± 0.31,5.67 ± 0.23
NALTLTFQRAMHDYNQAEMKQRDN [STX11],3.54 ± 0.15,3.68 ± 0.12
PSRAPPSTQEPQSPREGEELKPED [GNAS],5.5 ± 0.33,5.5 ± 0.32
EDGKRCVAVDYCASENHGCEHECV [MATN2],4.92 ± 0.14,4.88 ± 0.7
YVIVSGAQRKEERWDMADNEQVLT [YJU2B],2.88 ± 0.37,3.19 ± 0.24
TSFLQHPWDESGSGCLPPEPLFEA [FOXJ1],3.56 ± 0.22,3.62 ± 0.35
GIEPLYIKAEPASPDSPKGSSETE [ESRRA],5.57 ± 0.21,5.36 ± 0.33
PDVENEVKRLLRSDAEAVSTRWEV [TAF7L],3.24 ± 0.63,3.76 ± 0.65
ILGPSSAYTQTQFHNLRNTLDGYG [NFE2L1],2.46 ± 0.17,2.33 ± 0.25
SELERESKVVVPPLPGKAFLRQLP [SNX3],3.67 ± 0.18,3.86 ± 0.59
SVDEQNALREVYAHAVLGQHSHVV [WEE1],3.42 ± 0.14,3.47 ± 0.33
DTHSWKSELQREMEALAAETNLLL [TEKT4],3.25 ± 0.33,3.59 ± 0.44
QAQKCYRDLALVSRDGMNIVLNKI [INTS3],2.29 ± 0.23,2.61 ± 0.44
AVMEHAESKMYATSPYSDPVVSMD [PTPRD],4.3 ± 0.36,4.24 ± 0.53
GTLSMGVPQIFKYGETCFPKGRFE [ZNF24],2.83 ± 0.11,2.56 ± 0.27
LFEGMIWFLVPISSVICNDITAYL [CDS1],3.91 ± 0.42,3.38 ± 0.86
YEDIRRENPVGTFHCSMSPGNLEK [PTPN9],4.58 ± 0.23,4.73 ± 0.13
DLRKHRRKLLSPVSREENREDKAT [PPFIA4],4.52 ± 0.18,4.84 ± 0.3
VLRGLARPEHPPPAPTGQDDPQSQ [TMEM175],5.39 ± 0.45,5.54 ± 0.22

Sequence,protein stability index (treatment: DMSO),"protein stability index (treatment: MLN4924 1 uM, 8 h)"
FVKALDDLHKMNHVTPPNVSLGAT [JUNB],2.43 ± 0.34,2.94 ± 0.49
SAEKCGPPPPIDNGDITSFLLSVY [CFHR2],2.4 ± 0.16,2.33 ± 0.27
EGFADGFVKALDDLHKMNHVTPPN [JUNB],4.12 ± 0.22,4.17 ± 0.3
HDHLTLSVSRPEGRSWPSAPDDSK [PDLIM4],5.15 ± 0.093,5.06 ± 0.072
ATSLFVELDEEEVKAATTEPTEVE [BCL2L13],5.48 ± 0.4,5.62 ± 0.12
KDGKAFHPTYEEKLKLVALHKQVL [ACBD3],2.68 ± 0.33,2.65 ± 0.11
LSLLVMVISPVIQLQPTFTPMRVA [NSDHL],3.08 ± 0.32,3.23 ± 0.087
YPRYPDIHDLDLTLLNPRMIVDVT [CLCN6],2.48 ± 0.14,2.54 ± 0.22
LRRELELLGRERDRVQVERDGLAE [PRPH],4.6 ± 0.49,4.8 ± 0.36
PLFSNWWIQVTSLRIFVWLLLLYF [PHTF1],2.21 ± 0.22,2.5 ± 0.49
IDGVATTRYSVAGLSPYSDYEFRV [PTPRD],2.02 ± 0.24,2.02 ± 0.29
NHLLHHFVIGHLKGAPASWWNHMH [FADS1],2.36 ± 0.56,2.31 ± 0.34
SAPPITPECRQVLKTSRKDVKDKE [CHGB],5.26 ± 0.25,5.41 ± 0.22
SGSGKSGGYGFGRGRASGFAGSMF [KRT71],2.8 ± 0.24,2.69 ± 0.41
LREMCALSFQEELLYWGIAEDHLD [KCNG1],2.27 ± 0.27,2.26 ± 0.22
LSPALDLQAESPPVDPDSQADTVH [DNAAF3],5.48 ± 0.41,5.46 ± 0.21
GGLQHRVTAKTAPDVLRTKPAFIG [PTPRD],3.44 ± 0.5,3.07 ± 0.34
PMLETASKLLLSGTADGADLRTVD [ANKRD17],4.68 ± 0.077,4.67 ± 0.22
RRSIRYGREVELKPYIAAHFDVLP [PTPRD],2.5 ± 0.41,2.46 ± 0.43
DPDPDPEPAGGSRPGPAVPGLRAL [CMTM3],4.92 ± 0.28,4.68 ± 0.11
